Assay results as given in US20220177591A1 (TARGINTA, published 2022).

Target: T1, human integrin alpha10 on human cancer cell lines (BT549, PC-3, A549, MiaPaCa-2, PANC-1) (human, UniProt O75578 23-1167)
T1 construct: Endogenous protein on human cell lines; also called integrin alpha10 polypeptide; alpha10 subunit of integrin alpha10 beta1
T1 sequence: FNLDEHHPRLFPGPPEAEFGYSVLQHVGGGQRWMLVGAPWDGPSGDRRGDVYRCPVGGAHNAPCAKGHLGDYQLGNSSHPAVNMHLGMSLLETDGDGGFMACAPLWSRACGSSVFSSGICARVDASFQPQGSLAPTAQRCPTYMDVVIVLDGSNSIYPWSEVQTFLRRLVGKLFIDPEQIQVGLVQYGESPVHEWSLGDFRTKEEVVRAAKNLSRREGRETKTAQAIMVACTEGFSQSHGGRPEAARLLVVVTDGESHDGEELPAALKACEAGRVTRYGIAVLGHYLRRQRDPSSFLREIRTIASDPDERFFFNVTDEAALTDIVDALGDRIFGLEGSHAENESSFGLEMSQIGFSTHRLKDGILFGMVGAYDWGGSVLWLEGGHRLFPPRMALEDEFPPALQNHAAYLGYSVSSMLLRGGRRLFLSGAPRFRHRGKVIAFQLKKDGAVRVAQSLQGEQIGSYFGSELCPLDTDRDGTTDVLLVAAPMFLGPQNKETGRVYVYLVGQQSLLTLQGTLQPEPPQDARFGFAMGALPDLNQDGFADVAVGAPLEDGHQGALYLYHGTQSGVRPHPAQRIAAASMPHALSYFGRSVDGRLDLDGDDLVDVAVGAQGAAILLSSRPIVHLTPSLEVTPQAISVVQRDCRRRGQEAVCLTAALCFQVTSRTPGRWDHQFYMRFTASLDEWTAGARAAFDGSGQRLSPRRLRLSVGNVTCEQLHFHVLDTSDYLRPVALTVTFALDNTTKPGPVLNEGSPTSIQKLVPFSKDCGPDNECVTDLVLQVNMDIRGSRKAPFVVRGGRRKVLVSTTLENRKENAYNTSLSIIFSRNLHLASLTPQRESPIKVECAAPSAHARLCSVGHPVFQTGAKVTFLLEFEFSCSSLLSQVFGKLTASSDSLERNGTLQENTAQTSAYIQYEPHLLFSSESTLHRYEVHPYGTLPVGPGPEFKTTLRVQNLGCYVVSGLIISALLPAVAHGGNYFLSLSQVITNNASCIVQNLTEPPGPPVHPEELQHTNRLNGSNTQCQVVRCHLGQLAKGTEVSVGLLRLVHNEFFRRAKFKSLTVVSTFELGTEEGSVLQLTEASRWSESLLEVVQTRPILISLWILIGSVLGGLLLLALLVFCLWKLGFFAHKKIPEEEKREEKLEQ
Assay: flow cytometry competition on BT549 cells
Method: The binding competition assay of the antibody mouse monoclonal antibody mAbα10 and the human monoclonal antibody Th101 was performed in integrin alpha10 overexpressing C2C12α10 cells and triple-negative breast cancer BT549 cells. The cells were incubated with single or mixed antibodies at the indicated concentrations (μg/ml) for 30 min followed by two washed, and then stained with secondary antibodies for 30 min. Donkey anti-human Alexa 488 was used as a secondary antibody to the human monoclonal antibody Th101. Donkey anti-mouse Alexa 647 was used as a secondary antibody to the mouse monoclonal antibody mAbα10. The binding of the antibodies was analyzed by flow cytometry, wherein the fluorescence signal of the secondary antibodies were detected.

binding result: binds
B1: human monoclonal anti-integrin alpha10 antibody Th101 (antibody, V domains shown)
VH: EVQLLESGGGLVQPGGSLRLSCAASGFTFSDYGMNWVRQAPGKGLEWVAVISYDGSNKYYADSVKGRFTISRDNSKNTLYLQMNSLRAEDTAVYYCARGGNWGVFDYWGQGTLVTVSS
VL: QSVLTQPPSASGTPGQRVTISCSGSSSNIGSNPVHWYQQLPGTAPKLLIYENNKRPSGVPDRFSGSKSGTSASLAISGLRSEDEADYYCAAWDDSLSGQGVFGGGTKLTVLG
notes: It is a human monoclonal antibody detected with an anti-human secondary; Its negative control Th301 is human IgG1 VH/Lambda
